Patent publication US20190241648A1 (STATEN BIOTECHNOLOGY B V, published 2019)
Ends that are not written are not given here.

How the values were obtained:
Test in all cases: cyclic peptide substitution array
ApoC3 peptide E70I = target: T1, ApoC3 peptide E70I (human, cyclic (thioether))
T1 peptide: DKFSEFWDLDPIV
In short: (§1)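 Peptide microarrays incubated with antibody samples, then stained with goat anti-human IgG (Fc) DyLight680 and anti-HA DyLight800 control antibodies, scanned at intensity 7/7 (red/green). Secondary-only pre-stain checked background binding; framing HA peptides served as quality control; substitution effects read as changes in spot intensity.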

ApoC3 peptide D68E = target: T2, ApoC3 peptide D68E (human, cyclic (thioether))
T2 peptide: DKFSEFWDLEPEV
In short: as §1

ApoC3 peptide S62V = target: T3, ApoC3 peptide S62V (human, thioether (positions not given here); also: cyclic (thioether), ring places not given here)
T3 peptide: DKFVEFWDLDPEV
In short: as §1

ApoC3 peptide L67M = target: T4, ApoC3 peptide L67M (human, thioether (positions not given here); not fully specified (bridges); also: thioether between a C-terminal Cys side chain and a modified N-terminus, the Cys is not in the chain)
T4 peptide: DKFSEFWDMDPEV
In short: as §1

ApoC3 peptide D68F = target: T5, ApoC3 peptide D68F (human, cyclic (thioether))
T5 peptide: DKFSEFWDLFPEV
In short: as §1

ApoC3 peptide S62H = target: T6, ApoC3 peptide S62H (human, thioether (positions not given here); also: cyclic (thioether), ring places not given here)
T6 peptide: DKFHEFWDLDPEV
In short: as §1

ApoC3 peptide F61R = target: T7, ApoC3 peptide F61R (human, cyclic (thioether))
T7 peptide: DKRSEFWDLDPEV
In short: as §1

ApoC3 peptide F61M = target: T8, ApoC3 peptide F61M (human, cyclic (thioether))
T8 peptide: DKMSEFWDLDPEV
In short: as §1

ApoC3 peptide L67G = target: T9, ApoC3 peptide L67G (human, thioether (positions not given here); not fully specified (bridges); also: thioether between a C-terminal Cys side chain and a modified N-terminus, the Cys is not in the chain)
T9 peptide: DKFSEFWDGDPEV
In short: as §1

ApoC3 peptide K60V = target: T10, ApoC3 peptide K60V (human, cyclic (thioether))
T10 peptide: DVFSEFWDLDPEV
In short: as §1

ApoC3 peptide D59R = target: T11, ApoC3 peptide D59R (human, thioether (positions not given here); not fully specified (C-terminus, bridges); also: cyclised via thioether between a C-terminal Cys and a modified N-terminus, the Cys and the N-terminal …)
T11 peptide: RKFSEFWDLDPEV
In short: as §1

ApoC3 peptide P69T = target: T12, ApoC3 peptide P69T (human, not fully specified; cyclic (thioether))
T12 peptide: DKFSEFWDLDTEV
In short: as §1

ApoC3 peptide E70G = target: T13, ApoC3 peptide E70G (human, cyclic (thioether))
T13 peptide: DKFSEFWDLDPGV
In short: as §1

ApoC3 peptide F64E = target: T14, ApoC3 peptide F64E (human, cyclic (thioether))
T14 peptide: DKFSEEWDLDPEV
In short: as §1

ApoC3 peptide L67D = target: T15, ApoC3 peptide L67D (human, thioether (positions not given here); not fully specified (bridges); also: thioether between a C-terminal Cys side chain and a modified N-terminus, the Cys is not in the chain)
T15 peptide: DKFSEFWDDDPEV
In short: as §1

ApoC3 peptide F61Q = target: T16, ApoC3 peptide F61Q (human, cyclic (thioether))
T16 peptide: DKQSEFWDLDPEV
In short: as §1

ApoC3 peptide E63Q = target: T17, ApoC3 peptide E63Q (human, cyclic (thioether))
T17 peptide: DKFSQFWDLDPEV
In short: as §1

ApoC3 peptide E63K = target: T18, ApoC3 peptide E63K (human, cyclic (thioether))
T18 peptide: DKFSKFWDLDPEV
In short: as §1

ApoC3 peptide K60W = target: T19, ApoC3 peptide K60W (human, cyclic (thioether))
T19 peptide: DWFSEFWDLDPEV
In short: as §1

ApoC3 peptide D68H = target: T20, ApoC3 peptide D68H (human, cyclic (thioether))
T20 peptide: DKFSEFWDLHPEV
In short: as §1

ApoC3 peptide P69G = target: T21, ApoC3 peptide P69G (human, not fully specified; cyclic (thioether))
T21 peptide: DKFSEFWDLDGEV
In short: as §1

ApoC3 peptide E63D = target: T22, ApoC3 peptide E63D (human, not fully specified; cyclic (thioether))
T22 peptide: DKFSDFWDLDPEV
In short: as §1

ApoC3 peptide P69I = target: T23, ApoC3 peptide P69I (human, not fully specified; cyclic (thioether))
T23 peptide: DKFSEFWDLDIEV
In short: as §1

ApoC3 peptide D68N = target: T24, ApoC3 peptide D68N (human, cyclic (thioether))
T24 peptide: DKFSEFWDLNPEV
In short: as §1

ApoC3 peptide D66G = target: T25, ApoC3 peptide D66G (human, not fully specified; cyclic (thioether))
T25 peptide: DKFSEFWGLDPEV
In short: as §1

ApoC3 peptide W65H = target: T26, ApoC3 peptide W65H (human, cyclic (thioether))
T26 peptide: DKFSEFHDLDPEV
In short: as §1

ApoC3 peptide W65A = target: T27, ApoC3 peptide W65A (human, not fully specified; cyclic (thioether))
T27 peptide: DKFSEFADLDPEV
In short: as §1

ApoC3 peptide E63G = target: T28, ApoC3 peptide E63G (human, not fully specified; cyclic (thioether))
T28 peptide: DKFSGFWDLDPEV
In short: as §1

ApoC3 peptide E63H = target: T29, ApoC3 peptide E63H (human, cyclic (thioether))
T29 peptide: DKFSHFWDLDPEV
In short: as §1

ApoC3 peptide F61W = target: T30, ApoC3 peptide F61W (human, cyclic (thioether))
T30 peptide: DKWSEFWDLDPEV
In short: as §1

- % of binding to wild-type peptide (ApoC3 peptide E70I): 65.6%
- % of binding to wild-type peptide (ApoC3 peptide D68E): 40.1%
- % of binding to wild-type peptide (ApoC3 peptide S62V): 30.5%
- % of binding to wild-type peptide (ApoC3 peptide L67M): 12.5%
- % of binding to wild-type peptide (ApoC3 peptide D68F): 0%
- % of binding to wild-type peptide (ApoC3 peptide S62H): 2.89%
- % of binding to wild-type peptide (ApoC3 peptide F61R): 2.77%
- % of binding to wild-type peptide (ApoC3 peptide F61M): 68.7%
- % of binding to wild-type peptide (ApoC3 peptide L67G): 35.2%
- % of binding to wild-type peptide (ApoC3 peptide K60V): 101%
- % of binding to wild-type peptide (ApoC3 peptide D59R): 43.3%
- % of binding to wild-type peptide (ApoC3 peptide P69T): 113%
- % of binding to wild-type peptide (ApoC3 peptide E70G): 46.1%
- % of binding to wild-type peptide (ApoC3 peptide F64E): 283%
- % of binding to wild-type peptide (ApoC3 peptide L67D): 0.99%
- % of binding to wild-type peptide (ApoC3 peptide F61Q): 75.6%
- % of binding to wild-type peptide (ApoC3 peptide E63Q): 32.4%
- % of binding to wild-type peptide (ApoC3 peptide E63K): 19.1%
- % of binding to wild-type peptide (ApoC3 peptide K60W): 41.9%
- % of binding to wild-type peptide (ApoC3 peptide D68H): 0%
- % of binding to wild-type peptide (ApoC3 peptide P69G): 24.6%
- % of binding to wild-type peptide (ApoC3 peptide E63D): 29.9%
- % of binding to wild-type peptide (ApoC3 peptide P69I): 48%
- % of binding to wild-type peptide (ApoC3 peptide D68N): 0%
- % of binding to wild-type peptide (ApoC3 peptide D66G): 0%
- % of binding to wild-type peptide (ApoC3 peptide W65H): 0%
- % of binding to wild-type peptide (ApoC3 peptide W65A): 0%
- % of binding to wild-type peptide (ApoC3 peptide E63G): 0%
- % of binding to wild-type peptide (ApoC3 peptide E63H): 49.9%
- % of binding to wild-type peptide (ApoC3 peptide F61W): 15.7%
B1: Llama antibody 5E5 (antibody, V domains shown)
VH: QLQLVESGGGLVQPGGSLRLSCAASGFTFGTYSMRWVRQVPRKALEWVSSISTDGGGTAYRDSVKGRFTISRDNAKNTLYLQMNNLKPEDTAIYYCVIAGYSDWGQGTQVTVSS
VL: ATMLTQSPGSLSVVPGESASISCKTSQGLVHSDGKTYFYWFLQKPGQSPQQLIYQVSNRASGVPDRFTGSGSGTDFTLKISGVKAEDAGVYYCAQGTYYPHTFGSGTRLEIK
notes: detected with goat anti-human IgG (Fc); also called mAb 5E5
